Assay results published in paper PMC4605308 (Nucleic Acids Research, 2015).

Molecular target: T1, hexahistidine-tagged ubiquitin (the ubiquitin part of the Rad6^iso∼Ub conjugate) (human, UniProt P0CG48 1-76, C-terminus linked to K88 of Rad6 C88K via an isopeptide linkage)
T1 construct: ubiquitin, human; The final model holds two additional N-terminal residues from the plasmid vector; also called His6-Ub; Ub-His6; source: in the crystal conjugated to Rad6^C88K
Assay: crystal structure; Rad6^iso∼Ub conjugate; sitting drop vapor diffusion at 20°C, 24% PEG 300, 50 mM sodium acetate, pH 5.4; one conjugate in the asymmetric unit, contacts between conjugates in the crystal
Settings: both partners purified

B1: Rad6 C88K (the Rad6 part of the Rad6^iso∼Ub conjugate) (enzyme, Saccharomyces cerevisiae, UniProt P06104 1-172, looked up)
chain: MSTPARRRLMRDFKRMKEDAPPGVSASPLPDNVMVWNAMIIGPADTPYEDGTFRLLLEFDEEYPNKPPHVKFLSEMFHPNVYANGEIKLDILQNRWTPTYDVASILTSIQSLFNDPNPASPANVEAATLFKDHKSQYVKRVKETVEKSWEDDMDDMDDDDDDDDDDDDDEAD
modifications: lysine at position 88 linked to the ubiquitin C-terminus via an isopeptide linkage
notes: Rad6, Saccharomyces cerevisiae, with C88K; Written on its own for the non-covalent contact between Rad6 of one conjugate and ubiquitin of another in the crystal; source: E. coli Rosetta2 DE3 pLysS, purified; in the crystal conjugated to His6-Ub; not shown: MBP, N-terminal, cleaved; His6, N-terminal, cleaved
- binding result: binds
